Test results as given in patent US20150259430A1 (MAB DISCOVERY, published 2015).

Molecular target: T1, recombinant Fc chimeric conjugate of human HER2 (human, UniProt P04626 23-652)
T1 construct: extracellular domain; Coated on the ELISA plate
Assay: ELISA, coated antigen
Protocol: Microtiter plates were coated with a) c-Met, IGF-1R, EGFR, HER2, and/or HER3 protein or b) EGFR, HER2, and/or HER3 (recombinant Fc chimeric conjugates of human c-Met, IGF-1R, EGFR, HER2, HER3 or IL12 Rβ1). After a blocking process, specific antibodies from B-cell supernatants bind to the targets and are then detected by a POD-labeled anti-rabbit IgG antibody. The IL12R binding was used as a counter-screen.
12.5 μL 0.5 μg/mL protein in PBS was transferred to a microtiter plate incubated and washed 3× with Wash Buffer. 90 μL Block Buffer was added to each well, incubated and washed. 12.5 μL Standard Antibody (Anti-EGF-Receptor; HER2 Rabbit anti-Human Monoclonal (extracellular domain) (SP3) Antibody; HER3 (N-terminal) antibody; start concentration 2 μg/ml; IL-12Rbeta1 antibody start concentration 500 ng/ml) in 1:2 dilutions or sample diluted in ELISA buffer was added, incubated and washed. 12.5 μl 1:5000 POD-Antibody (Anti-rabbit IgG, peroxidase-linked species-specific Fab2 fragment (from donkey) (ECL); assay dilution: 1:5000) in Elisa Buffer was added, incubated and washed. 15 μl TMB was added and 15 μl HCl was added after sufficient development. Absorbance (Optical Density O.D.) was read at 450 nm/620 nm.

Binder	binding result
Antibody 22 (antibody, V domains shown, rabbit IgG in B-cell supernatant) VH: QSVEESGGRLVTPGTPLTLTCTVSGFSLSNYGMSWVRQAPGKGLEWIGIITSRSTYYASWAKGRFTISKTSSTTVDLKMTSLTTEDTATYFCGVNNLWGQGTLVTVSS VL: DPVLTQTPSSVSAAVGGTVTISCQSSQTINNNDLSWFQQKPGQPPKRLIYEASTLTSGVPSRFKGSGSGTQFTLTISDVQCDDAATYYCLGGYYSYGWYFGFGGGTEVVVK	no binding (tested: OD 0.1 or lower)
Antibody 23 (antibody, V domains shown, rabbit IgG in B-cell supernatant) VH: QSLEESGGRLVKPGTPLTLTCTASGFSLSSYYMIWVRQAPGKGLEYIGIISSSGSTYYASWAKGRFTISKTSSTTVDLKMTSLTTEDTATYFCGVNNLWGQGTLVTVSS VL: DPVLTQTPSSVSAAVGGTVTISCQSSQSINNNDLSWFQKKPGQPPKRLIYEASTLTSGVPSRFKGSGSGTQFTLTISDVQCDDAATYYCLGGYYSYGWYFGFGGGTEVVVK	no binding (tested: OD 0.1 or lower)
Antibody 32 (antibody, V domains shown, rabbit IgG in B-cell supernatant) VH: QSVEESGGRLVTPGTPLTLTCTVSGFSLSSYDMSWVRQAPGKGLEWIGFIDGDSNTYDATWAKGRFTISKTSTTVDLKITSPTTEDTATYFCTRGFNLWGQGTLVTVSS VL: DVVMTQTPASVSEPVGGTVTIKCQASQSISSYLAWYQQKPGQPPKLLIYKASTLASGVSSRFKGSGSGTEFTLTISDLECADAATYYCQCSAGGRSGIGGFGGGTEVVVK	no binding (tested: OD 0.1 or lower)
Antibody 75 (antibody, V domains shown, rabbit IgG in B-cell supernatant) VH: QSVEESGGRLVTPGTPLTLTCTVSGFSLSRNAMSWVRQAPGKGLEWIGIINIYGTTWYASWAKGRFTISKTSSTTVTLKITSPTTEDTATYFCARDYGGDSATRLNLWGQGTLVTVSS VL: DVVMTQTPASVEAAVGGTVTIKCQASQSIGGYLSWYQQKPGQPPKLLIYDASNLEIGVPSRFKGSGSGTEYTLTISDLECADAVTYYCQCTYGYGISSSYGNAFGGGTEVVVK	no binding (tested: OD 0.1 or lower)
Antibody 71 (antibody, V domains shown, rabbit IgG in B-cell supernatant) VH: QSVEESGGRLVTPGTPLTLTCTVSGFSLSRNAMSWVRQAPGKGLEWIGIINIYGTTWHAGWAKGRFTISKTSSTTVTLKITSPTTEDTATYFCARDYGGDSATRLNLWGQGTLVTVSS VL: DVVMTQTPASVEAAVGGTVTIKCQASQSIGGYLSWYQQKPGQPPKLLIYDASNLEIGVPSRFKGSGSGTEYTLTISDLECADAVTYYCQCTYGYGISSSYGNAFGGGTEVVVK	no binding (tested: OD 0.1 or lower)
Antibody 52 (antibody, V domains shown, rabbit IgG in B-cell supernatant) VH: QSVEESGGRLVTPGTALTLTCTVSGFSLSSGDMSWVRQAPGKGLEWIGYIWSGVSTYYANWAKGRFTISKTSSTTVDLKMTSLTIEDTATYFCARVDFYSYVYSLWGPGTLVTVSS VL: ALVMTQTPASVEAAVGGTVTIKCQASQSISSCLAWYQQKPGQPPKLLIYSASTLASGVPSRFKGSGSGTEYTLTISGVECADAATYYCQQHYTSNNIDNAFGGGTEVVVK	no binding (tested: OD 0.1 or lower)
Antibody 53 (antibody, V domains shown, rabbit IgG in B-cell supernatant) VH: QSLEESGGRLVTPGGSLTLTCTVSGSDISTYDASWVRQAPGKGLEWIGYIWSGTKTYYASWAKGRFTISKTSSTTVDLKMTSLTTEDTATYFCATVNTYTYVYSLWGPGTLVTVSS VL: AYDMTQTPASVEVAVGGTVTIKCQASQSISSSLAWYQQKSGQPPKLLIYLASTLASGVPSRFKGSGSGTEYTLTISGVECADAATYYCQQHYTALNVDNAFGGGTEVVVK	no binding (tested: OD 0.1 or lower)
Antibody 56 (antibody, V domains shown, rabbit IgG in B-cell supernatant) VH: QSLEESGGRLVTPGTPLTLTCTASGFSLSSYDLSWVRQAPGKGLEWIAYIWSGDKTYYANWAKGRFTISKTSSTTVDLKMTSLTTEDTATYFCATVNIYSYVYSLWGPGTLVTVSS VL: AYDMTQTPASVEVAVGGTVTIKCQASQSISTALAWYQQKSGQPPKLLIYLASTLASGVPSRFKGSGSGTEYTLTISGVECADAATYYCQQHYSSNNVDNAFGGGTEVVVK	no binding (tested: OD 0.1 or lower)
Antibody 55 (antibody, V domains shown, rabbit IgG in B-cell supernatant) VH: QSLEESGGRLVTPGGSLTLTCTVSGSDISSYDMSWVRQAPGKGLEWIGYIWSGTTIYYASWPKGRFTISKTSSTTVDLKMTSLTTEDTATYFCAAINIYTYVYSLWGPGTLVTVSS VL: AYDMTQTPASVEAAVGGTVTIKCQASESIYSSLAWYQQKSGQPPKLLIYLASTLASGVPSRFKGSGSGTDYTLTISGVECADAATYYCQQHYSGSNVDNAFGGGTEVVVK	no binding (tested: OD 0.1 or lower)
Antibody 64 (antibody, V domains shown, rabbit IgG in B-cell supernatant) VH: QEQLKESGGGLVTPGTPLTLTCTASGFTISSYDMGWVRQAPGKGLEWIGYIWSGGSTYYANWAKGRFTISKTSTTVDLKMTSLTTEDTATYFCARVEFYSYVYVLWGPGTLVTVSS VL: AFELTQTPSSVEAAVGGTVTIKCQASQSISGCLAWYQQKPGQPPKLLIYLASTLASGVSSRFRGSGSGTEYTLTISGVECDDAATYYCQQHYSSNNVDNAFGGGTEVVVK	no binding (tested: OD 0.1 or lower)
Antibody 28 (antibody, V domains shown, rabbit IgG in B-cell supernatant) VH: QEQLEESGGDLVKPGASLTLTCKVSGFSLTSGYYMCWVRQAPGKGLEWLACIYTGSSGRTYYASWAKGRFTISKTSSTTVTLQMTSLTAADTATFFCARELYLSSVLWGPGTLVTVSS VL: DVVMTQTPASVSEPVGGTVTIKCQASQSISSSYLSWYQQKPGQPPKLLIYRASTLESGVPSRFKGSGSGTEFTLTISDLECADAATYYCQCTDYAGSYVGGAFGGGTEVVVK	no binding (tested: OD 0.1 or lower)
Antibody 24 (antibody, V domains shown, rabbit IgG in B-cell supernatant) VH: QSVEESGGRLVTPGTPLTLTCTVSGFSLSSNAISWVRQAPGKGLEWIGFINIYGSTYYASWAKGRFTISRTSTTVDLKMTSLTTEDTATYFCARDRTGDSPTRLDLWGQGTLVTVSS VL: DVVMTQTPASVEAAVGGTVTIKCQASQSISSYLSWYQQKPGQPPKLLIYDASTLASGVPSRFKGSGSGTQFTLTISDLECADAATYYCQCTYGYGASSAYGNAFGGGTEMVVK	no binding (tested: OD 0.1 or lower)
Antibody 11 (antibody, V domains shown, rabbit IgG in B-cell supernatant) VH: QSVEESGGRLVTPGTPLTLTCTVSGFSLRSYAMSWVRQAPGKGLEWVGIISTSGDTYYASWAKGRFTISKTSTTVDLKITSPTTEDTATYFCARYSYDDYGDYVRVGMDLWGPGTLVTVSS VL: AAVLTQTPSPVSAAVGGTVSISCQSSKSVYYNNWLSWFQQKPGQRPKLLIYGASTLASGVPSRFKGSGSETQFTLTISDVQCDDAATYYCAGGYTSSSDTVSFGGGTEVVVK	no binding (tested: OD 0.1 or lower)
Antibody 62 (antibody, V domains shown, rabbit IgG in B-cell supernatant) VH: QSVEESGGRLVTPGTPLTLTCTVSGFSLSTNDIGWVRQAPGKGLEWIGYIWSGVKTYYVGWAKGRFTISKTSSTTVDLKMTSLTTEDTATYFCARVNSFSYVYSLWGPGTLVTVSS VL: AYDMTQTPGSVEVAVGGTVTIKCQASEDIHSSLAWYQQKPGQPPKLLIYLASTLESGVPSRFKGSGSGTEYTLTISGVECADAATYYCQQHHSTSGVDNAFGGGTEVVVK	no binding (tested: OD 0.1 or lower)
Antibody 69 (antibody, V domains shown, rabbit IgG in B-cell supernatant) VH: QSVEESGGRLVTPGTLLTLTCTVSGFSLTTYAVSWVRQAPGKGLEYMGYISATGSTYYASWAKGRFTISRTSTTVDLKITSPTIEDTATYFCARIDAATSYSAFDPWGPGTLVTVSS VL: AQVLTQTPSSVSAAVGGTVTINCQSSESVYKNNYLAWYQQKPGQPPRLLIYLASTLASGVPSRFSGSGSGTQFTLTISGVQCDDAATYYCEATYVGVDWYWAFGGGTEVVVK	no binding (tested: OD 0.1 or lower)
